Data published in US20130316941A1 (Boehringer Ingelheim, published 2013).
Starred links: 1 amine or outer side, 2 acyl side, 3 side chain; linkers in the order of their positions; H or OH if unused. Non-standard residues stand in square brackets, D forms with d. Groups on a side chain read outwards from the residue. *: point of attachment. γGlu = O=C(O)[C@H](CCC(=O)[*:2])N[*:1]; Palmitoyl = CCCCCCCCCCCCCCCC(=O)*

B1: H-H-Aib-HGTFTSDYSRYLDE-K(Hexadecanoyl-isoGlu)-RARDFIEWLLSA-NH2 [Compound 12] (peptide)
peptide: HXHGTFTSDYSRYLDEKRARDFIEWLLSA
HELM: PEPTIDE1{H.[Aib].H.G.T.F.T.S.D.Y.S.R.Y.L.D.E.K.R.A.R.D.F.I.E.W.L.L.S.A.[am]}|PEPTIDE2{[CCCCCCCCCCCCCCCC(=O)[*:2]].[gGlu]}$PEPTIDE1,PEPTIDE2,17:R3-2:R2$$$V2.0
SMILES: CCCCCCCCCCCCCCCC(=O)N[C@@H](CCC(=O)NCCCC[C@H](NC(=O)[C@H](CCC(=O)O)NC(=O)[C@H](CC(=O)O)NC(=O)[C@H](CC(C)C)NC(=O)[C@H](Cc1ccc(O)cc1)NC(=O)[C@H](CCCNC(=N)N)NC(=O)[C@H](CO)NC(=O)[C@H](Cc1ccc(O)cc1)NC(=O)[C@H](CC(=O)O)NC(=O)[C@H](CO)NC(=O)[C@@H](NC(=O)[C@H](Cc1ccccc1)NC(=O)[C@@H](NC(=O)CNC(=O)[C@H](Cc1c[nH]cn1)NC(=O)C(C)(C)NC(=O)[C@@H](N)Cc1c[nH]cn1)[C@@H](C)O)[C@@H](C)O)C(=O)N[C@@H](CCCNC(=N)N)C(=O)N[C@@H](C)C(=O)N[C@@H](CCCNC(=N)N)C(=O)N[C@@H](CC(=O)O)C(=O)N[C@@H](Cc1ccccc1)C(=O)N[C@H](C(=O)N[C@@H](CCC(=O)O)C(=O)N[C@@H](Cc1c[nH]c2ccccc12)C(=O)N[C@@H](CC(C)C)C(=O)N[C@@H](CC(C)C)C(=O)N[C@@H](CO)C(=O)N[C@@H](C)C(N)=O)[C@@H](C)CC)C(=O)O
B2: H-H-Aib-QGTFTSDYSRYLDE-K(Hexadecanoyl-isoGlu)-RARDFIEWLLSA-NH2 [Compound 9] (peptide)
peptide: HXQGTFTSDYSRYLDEKRARDFIEWLLSA
HELM: PEPTIDE1{H.[Aib].Q.G.T.F.T.S.D.Y.S.R.Y.L.D.E.K.R.A.R.D.F.I.E.W.L.L.S.A.[am]}|PEPTIDE2{[CCCCCCCCCCCCCCCC(=O)[*:2]].[gGlu]}$PEPTIDE1,PEPTIDE2,17:R3-2:R2$$$V2.0
SMILES: CCCCCCCCCCCCCCCC(=O)N[C@@H](CCC(=O)NCCCC[C@H](NC(=O)[C@H](CCC(=O)O)NC(=O)[C@H](CC(=O)O)NC(=O)[C@H](CC(C)C)NC(=O)[C@H](Cc1ccc(O)cc1)NC(=O)[C@H](CCCNC(=N)N)NC(=O)[C@H](CO)NC(=O)[C@H](Cc1ccc(O)cc1)NC(=O)[C@H](CC(=O)O)NC(=O)[C@H](CO)NC(=O)[C@@H](NC(=O)[C@H](Cc1ccccc1)NC(=O)[C@@H](NC(=O)CNC(=O)[C@H](CCC(N)=O)NC(=O)C(C)(C)NC(=O)[C@@H](N)Cc1c[nH]cn1)[C@@H](C)O)[C@@H](C)O)C(=O)N[C@@H](CCCNC(=N)N)C(=O)N[C@@H](C)C(=O)N[C@@H](CCCNC(=N)N)C(=O)N[C@@H](CC(=O)O)C(=O)N[C@@H](Cc1ccccc1)C(=O)N[C@H](C(=O)N[C@@H](CCC(=O)O)C(=O)N[C@@H](Cc1c[nH]c2ccccc12)C(=O)N[C@@H](CC(C)C)C(=O)N[C@@H](CC(C)C)C(=O)N[C@@H](CO)C(=O)N[C@@H](C)C(N)=O)[C@@H](C)CC)C(=O)O
B3: H-HSHGTFTSDYSRYLDE-K(Hexadecanoyl-isoGlu)-RARDFIEWLLSA-NH2 [Compound 10] (peptide)
peptide: HSHGTFTSDYSRYLDEKRARDFIEWLLSA
HELM: PEPTIDE1{H.S.H.G.T.F.T.S.D.Y.S.R.Y.L.D.E.K.R.A.R.D.F.I.E.W.L.L.S.A.[am]}|PEPTIDE2{[CCCCCCCCCCCCCCCC(=O)[*:2]].[gGlu]}$PEPTIDE1,PEPTIDE2,17:R3-2:R2$$$V2.0
SMILES: CCCCCCCCCCCCCCCC(=O)N[C@@H](CCC(=O)NCCCC[C@H](NC(=O)[C@H](CCC(=O)O)NC(=O)[C@H](CC(=O)O)NC(=O)[C@H](CC(C)C)NC(=O)[C@H](Cc1ccc(O)cc1)NC(=O)[C@H](CCCNC(=N)N)NC(=O)[C@H](CO)NC(=O)[C@H](Cc1ccc(O)cc1)NC(=O)[C@H](CC(=O)O)NC(=O)[C@H](CO)NC(=O)[C@@H](NC(=O)[C@H](Cc1ccccc1)NC(=O)[C@@H](NC(=O)CNC(=O)[C@H](Cc1c[nH]cn1)NC(=O)[C@H](CO)NC(=O)[C@@H](N)Cc1c[nH]cn1)[C@@H](C)O)[C@@H](C)O)C(=O)N[C@@H](CCCNC(=N)N)C(=O)N[C@@H](C)C(=O)N[C@@H](CCCNC(=N)N)C(=O)N[C@@H](CC(=O)O)C(=O)N[C@@H](Cc1ccccc1)C(=O)N[C@H](C(=O)N[C@@H](CCC(=O)O)C(=O)N[C@@H](Cc1c[nH]c2ccccc12)C(=O)N[C@@H](CC(C)C)C(=O)N[C@@H](CC(C)C)C(=O)N[C@@H](CO)C(=O)N[C@@H](C)C(N)=O)[C@@H](C)CC)C(=O)O
B4: H-H-DSer-PGTFTSDYSRYLDE-K(Hexadecanoyl-isoGlu)-RARDFIEWLLSA-NH2 [Compound 14] (peptide)
peptide: HXPGTFTSDYSRYLDEKRARDFIEWLLSA
HELM: PEPTIDE1{H.[dS].P.G.T.F.T.S.D.Y.S.R.Y.L.D.E.K.R.A.R.D.F.I.E.W.L.L.S.A.[am]}|PEPTIDE2{[CCCCCCCCCCCCCCCC(=O)[*:2]].[gGlu]}$PEPTIDE1,PEPTIDE2,17:R3-2:R2$$$V2.0
SMILES: CCCCCCCCCCCCCCCC(=O)N[C@@H](CCC(=O)NCCCC[C@H](NC(=O)[C@H](CCC(=O)O)NC(=O)[C@H](CC(=O)O)NC(=O)[C@H](CC(C)C)NC(=O)[C@H](Cc1ccc(O)cc1)NC(=O)[C@H](CCCNC(=N)N)NC(=O)[C@H](CO)NC(=O)[C@H](Cc1ccc(O)cc1)NC(=O)[C@H](CC(=O)O)NC(=O)[C@H](CO)NC(=O)[C@@H](NC(=O)[C@H](Cc1ccccc1)NC(=O)[C@@H](NC(=O)CNC(=O)[C@@H]1CCCN1C(=O)[C@@H](CO)NC(=O)[C@@H](N)Cc1c[nH]cn1)[C@@H](C)O)[C@@H](C)O)C(=O)N[C@@H](CCCNC(=N)N)C(=O)N[C@@H](C)C(=O)N[C@@H](CCCNC(=N)N)C(=O)N[C@@H](CC(=O)O)C(=O)N[C@@H](Cc1ccccc1)C(=O)N[C@H](C(=O)N[C@@H](CCC(=O)O)C(=O)N[C@@H](Cc1c[nH]c2ccccc12)C(=O)N[C@@H](CC(C)C)C(=O)N[C@@H](CC(C)C)C(=O)N[C@@H](CO)C(=O)N[C@@H](C)C(N)=O)[C@@H](C)CC)C(=O)O
B5: H-H-DSer-HGTFTSDYSRYLDE-K(Hexadecanoyl-isoGlu)-RARDFIEWLLSA-NH2 [Compound 11] (peptide)
peptide: HXHGTFTSDYSRYLDEKRARDFIEWLLSA
HELM: PEPTIDE1{H.[dS].H.G.T.F.T.S.D.Y.S.R.Y.L.D.E.K.R.A.R.D.F.I.E.W.L.L.S.A.[am]}|PEPTIDE2{[CCCCCCCCCCCCCCCC(=O)[*:2]].[gGlu]}$PEPTIDE1,PEPTIDE2,17:R3-2:R2$$$V2.0
SMILES: CCCCCCCCCCCCCCCC(=O)N[C@@H](CCC(=O)NCCCC[C@H](NC(=O)[C@H](CCC(=O)O)NC(=O)[C@H](CC(=O)O)NC(=O)[C@H](CC(C)C)NC(=O)[C@H](Cc1ccc(O)cc1)NC(=O)[C@H](CCCNC(=N)N)NC(=O)[C@H](CO)NC(=O)[C@H](Cc1ccc(O)cc1)NC(=O)[C@H](CC(=O)O)NC(=O)[C@H](CO)NC(=O)[C@@H](NC(=O)[C@H](Cc1ccccc1)NC(=O)[C@@H](NC(=O)CNC(=O)[C@H](Cc1c[nH]cn1)NC(=O)[C@@H](CO)NC(=O)[C@@H](N)Cc1c[nH]cn1)[C@@H](C)O)[C@@H](C)O)C(=O)N[C@@H](CCCNC(=N)N)C(=O)N[C@@H](C)C(=O)N[C@@H](CCCNC(=N)N)C(=O)N[C@@H](CC(=O)O)C(=O)N[C@@H](Cc1ccccc1)C(=O)N[C@H](C(=O)N[C@@H](CCC(=O)O)C(=O)N[C@@H](Cc1c[nH]c2ccccc12)C(=O)N[C@@H](CC(C)C)C(=O)N[C@@H](CC(C)C)C(=O)N[C@@H](CO)C(=O)N[C@@H](C)C(N)=O)[C@@H](C)CC)C(=O)O
B6: H-H-Aib-QGTFTSDYSKYLD-K(Hexadecanoyl-isoGlu)-RRAKDFIEWLLSA-NH2 [Compound 1] (peptide)
peptide: HXQGTFTSDYSKYLDKRRAKDFIEWLLSA
HELM: PEPTIDE1{H.[Aib].Q.G.T.F.T.S.D.Y.S.K.Y.L.D.K.R.R.A.K.D.F.I.E.W.L.L.S.A.[am]}|PEPTIDE2{[CCCCCCCCCCCCCCCC(=O)[*:2]].[gGlu]}$PEPTIDE1,PEPTIDE2,16:R3-2:R2$$$V2.0
SMILES: CCCCCCCCCCCCCCCC(=O)N[C@@H](CCC(=O)NCCCC[C@H](NC(=O)[C@H](CC(=O)O)NC(=O)[C@H](CC(C)C)NC(=O)[C@H](Cc1ccc(O)cc1)NC(=O)[C@H](CCCCN)NC(=O)[C@H](CO)NC(=O)[C@H](Cc1ccc(O)cc1)NC(=O)[C@H](CC(=O)O)NC(=O)[C@H](CO)NC(=O)[C@@H](NC(=O)[C@H](Cc1ccccc1)NC(=O)[C@@H](NC(=O)CNC(=O)[C@H](CCC(N)=O)NC(=O)C(C)(C)NC(=O)[C@@H](N)Cc1c[nH]cn1)[C@@H](C)O)[C@@H](C)O)C(=O)N[C@@H](CCCNC(=N)N)C(=O)N[C@@H](CCCNC(=N)N)C(=O)N[C@@H](C)C(=O)N[C@@H](CCCCN)C(=O)N[C@@H](CC(=O)O)C(=O)N[C@@H](Cc1ccccc1)C(=O)N[C@H](C(=O)N[C@@H](CCC(=O)O)C(=O)N[C@@H](Cc1c[nH]c2ccccc12)C(=O)N[C@@H](CC(C)C)C(=O)N[C@@H](CC(C)C)C(=O)N[C@@H](CO)C(=O)N[C@@H](C)C(N)=O)[C@@H](C)CC)C(=O)O

Molecular target: human glucagon receptor (Glucagon-R) (human, UniProt P47871 26-477)
Test: cell-based or functional assay

human glucagon receptor (Glucagon-R), sequence (P47871 26-477): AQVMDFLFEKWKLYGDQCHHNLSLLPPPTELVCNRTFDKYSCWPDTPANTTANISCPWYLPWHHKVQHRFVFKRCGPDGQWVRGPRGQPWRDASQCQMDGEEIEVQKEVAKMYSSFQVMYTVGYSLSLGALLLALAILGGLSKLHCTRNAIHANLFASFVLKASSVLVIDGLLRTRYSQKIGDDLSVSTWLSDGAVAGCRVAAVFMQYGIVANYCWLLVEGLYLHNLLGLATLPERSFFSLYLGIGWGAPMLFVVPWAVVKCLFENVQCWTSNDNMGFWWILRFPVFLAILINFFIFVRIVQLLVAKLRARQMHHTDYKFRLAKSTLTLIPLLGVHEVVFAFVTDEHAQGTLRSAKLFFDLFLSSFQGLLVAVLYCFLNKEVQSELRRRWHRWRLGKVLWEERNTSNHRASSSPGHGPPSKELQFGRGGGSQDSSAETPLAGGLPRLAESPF

Binder | EC50 values for cAMP generation in HEK293 cells expressing Glucagon receptor [nM]
B1 | 0.14
B2 | 0.1
B3 | 0.06
B4 | 0.19
B5 | 0.09
H-H[dS]QGTFTSDYSRYLDEK([γGlu-Palmitoyl])RARDFIEWLLSA-NH2 [H-H-DSer-QGTFTSDYSRYLDE-K(Hexadecanoyl-isoGlu)-RARDFIEWLLSA-NH2 [Compound 8]] | 0.2
B6 | 0.15

Molecular target: human glucagon-like peptide 1 receptor (GLP-1R) (human, UniProt P43220 24-463)
Test: cell-based or functional assay

Binder | EC50 values for cAMP generation in HEK293 cells expressing GLP-1 receptor [nM]
B1 | 0.06
B2 | 0.05
B3 | 0.47
B4 | 0.12
B5 | 0.15
H-H[dS]QGTFTSDYSRYLDEK([γGlu-Palmitoyl])RARDFIEWLLSA-NH2 [H-H-DSer-QGTFTSDYSRYLDE-K(Hexadecanoyl-isoGlu)-RARDFIEWLLSA-NH2 [Compound 8]] | 0.2
B6 | 0.12
